Laboratory results from US11505576B2, “Polypeptides based on a scaffold” (AFFIBODY AB, priority 2018, dated 2022).

Experiments:
insulin = target: T1, insulin (Homo sapiens, UniProt P01308); experiment: Kinetic analysis using surface plasmon resonance (Biacore T200), immobilized insulin; assay type: binding; conditions: MGSSHHHHHHGSS-[Y#####]-A
T1 construct: purchased Roche 1376497
Description: Kinetic constants (ka and kd) and affinities (KD) were determined for His6-tagged Y variants using a Biacore T200 instrument (GE Healthcare). Target proteins C4, IL-6 and insulin, respectively, were immobilized in separate flow cells on the carboxylated dextran layer of different CM5 chip surfaces (GE Healthcare). Immobilization was performed using amine coupling chemistry according to the manufacturer's protocol and PBS pH 7.4 supplemented with 0.1 Tween20 (PBST 0.1%) as running buffer. The ligand immobilization levels on the surfaces were 3280-8830 RU for C4, 495-1184 RU for IL-6, and 270-282 RU for insulin. One flow cell surface on each chip was activated and deactivated for use as blank during analyte injections. In the kinetic experiment, PBST 0.1% was used as running buffer at a flow rate of 30 μl/min. The analytes, i.e. Y variants, were each diluted in PBST 0.1 buffer at concentrations of 1000, 500, 100, 50 and 10 nM and injected for 5 min, followed by dissociation in running buffer for 3 min. After dissociation, the surfaces were regenerated with one injection of 30 μl 10 mM HCl. Kinetic constants were calculated from the sensorgrams using the Langmuir 1:1 model of Biacore T200 Evaluation software 2.0 (GE Healthcare).
(§1) Produced Y variants were subjected to CD and SPR analyses according to the methods described in Example 1.
(§2) The Y variants were cloned, produced and characterized according to the general methods described in Example 1. Produced Y variants with point mutations and/or N-terminal or C-terminal extensions were subjected to CD and SPR analyses as described in Example 1.
(§3) Produced Y variants were subjected to CD and SPR analyses according to the methods described in Example 1. In addition, CD spectra of selected IL-6 binding variants were also recorded at 60, 70, 80 and 90° C.
(§4) The Y variants were cloned, produced and characterized according to the general methods described in Example 1. Produced Y variants with point mutations were subjected to CD and SPR analyses as described in Example 1. In addition, CD spectra of the IL-6 binding variants were also recorded at 60, 70, 80 and 90° C.

[1] = Fraction of soluble product on expression in E. coli, estimated from SDS-PAGE; assay type: physicochemical; conditions: MGSSHHHHHHGSS-[Y#####]-A; for Estimated soluble fraction: Table 7, Ylib002Naive.I selection; for Est soluble fraction: Table 9, mutation study 5
Description: E. coli T7E2 cells were transformed with plasmids containing the gene fragment of each respective Y variant. The resulting recombinant strains were generally cultivated in media supplemented with 50 μg/ml kanamycin at 30-37° C. in 50 ml scale using the EnPresso protocol (Enpresso GmbH). In order to induce protein expression, isopropyl-β-D-1-thiogalactopyranoside (IPTG) was added to a final concentration of 0.5 mM at an optical density at 600 nm (OD600) of approximately 10. After induction, the cultures were incubated for 16 h. The cells were harvested by centrifugation. Alternatively, the culture was performed at 37° C. in 980 ml of TSB-YE medium (tryptic soy broth 30 g/l supplemented with yeast extract 5 g/l) supplemented with 50 μg/ml kanamycin, and protein expression induced with 0.2 mM IPTG at OD600=2, followed by incubation for 5 h before harvesting of the cells by centrifugation. The total yield as well as the fraction of soluble and insoluble product of the respective Y variant was estimated based on SDS-PAGE analysis.

[2] = Circular dichroism spectroscopy analysis (CD spectra, variable temperature measurement, refolding); assay type: physicochemical; conditions: MGSSHHHHHHGSS-[Y#####]-A
Description: The respective Y variant was diluted to 0.5 mg/ml in PBS. A CD spectrum at 250-195 nm was obtained at 20° C. In addition, a variable temperature measurement (VTM) was performed to determine the melting temperature (Tm). In the VTM, absorbance was measured at 221 nm while the temperature was raised from 20° C. to 90° C. with a temperature gradient of 5° C./min. A new CD spectrum was obtained at 20° C. after the heating procedure, in order to study the refolding ability of the Y variants. The CD measurements were performed on a Jasco J-810 spectropolarimeter (Jasco Scandinavia AB) using a cell with an optical path length of 1 mm.
as §1, §2, §3, §4

T1 sequence (P01308 25-54 limits assumed): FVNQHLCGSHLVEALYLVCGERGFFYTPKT
T1 sequence (P01308 90-110 limits assumed): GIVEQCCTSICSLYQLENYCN

Kd (insulin; Table 7) | ka (insulin; Table 7) | kd (insulin; Table 7) | Kd (insulin; Table 9, mutation study 5) | ka (insulin; Table 9, mutation study 5) | kd (insulin; Table 9, mutation study 5) | Substance | Estimated soluble fraction [1] | Tm ([2]; Table 7) | Est soluble fraction [1] | Tm ([2]; Table 9, mutation study 5)
6.5 nM | 310000 M⁻¹ s⁻¹ | 0.002 s⁻¹ |  |  |  | Y00299: insulin binding Y variant from Ylib002Naive.I, SEQ ID NO:132 (LAEAKEAAIAELDSKGVGAYQIKFIQVAKTVEQVQILKQAILADLPA; Engineered insulin binding Y variant) | 75% | 56 °C |  | 
0.94 nM | 2.9e+07 M⁻¹ s⁻¹ | 0.056 s⁻¹ |  |  |  | Y00301: insulin binding Y variant from Ylib002Naive.I, SEQ ID NO:133 (LAEAKEAAIAELDSKGVGARQIKWIQQAKSVEVVQWLKQAILADLPA; Engineered insulin binding Y variant) | 83% | 62 °C |  | 
21 nM | 85000 M⁻¹ s⁻¹ | 0.0011 s⁻¹ |  |  |  | Y00304: insulin binding Y variant from Ylib002Naive.I, SEQ ID NO:134 (LAEAKEAAIAELDSKGVGAYQIKFIQVAHDVEEVQILKQAILADLPA; Engineered insulin binding Y variant) | 33% | 41 °C |  | 
37 nM | 170000 M⁻¹ s⁻¹ | 0.0063 s⁻¹ |  |  |  | Y00310: insulin binding Y variant from Ylib002Naive.I, SEQ ID NO:135 (LAEAKEAAIAELDSKGVGAYQIKFIQIAHTVEEVQLMKQAILADLPA; Engineered insulin binding Y variant) | 86% | 54 °C |  | 
120 nM | 30000 M⁻¹ s⁻¹ | 0.0037 s⁻¹ |  |  |  | Y00330: insulin binding Y variant from Ylib002Naive.I, SEQ ID NO:136 (LAEAKEAAIAELDSKGVGAKYIKMIQMAKHVETVQYMKQAILASLPA; Engineered insulin binding Y variant) | 67% | 56 °C |  | 
61 nM | 290000 M⁻¹ s⁻¹ | 0.017 s⁻¹ |  |  |  | Y00345: insulin binding Y variant from Ylib002Naive.I, SEQ ID NO:138 (LAEAKEAAIAELDSKGVGAYQIKFIQVAKTVEAVQAIKQAILADLPA; Engineered insulin binding Y variant) | 80% | 53 °C |  | 
0.17 nM | 3.4e+07 M⁻¹ s⁻¹ | 0.0061 s⁻¹ |  |  |  | Y00356a: insulin binding Y variant from Ylib002Naive.I, SEQ ID NO:141 (LAEAKEAAIAELDSKGVGAKYIKMIQHAHYVEVVQWLKQAILAHLPA; Engineered insulin binding Y variant) | 60% | 56 °C |  | 
10 nM | 220000 M⁻¹ s⁻¹ | 0.0023 s⁻¹ |  |  |  | Y00358: insulin binding Y variant from Ylib002Naive.I, SEQ ID NO:142 (LAEAKEAAIAELDSKGVGAAKIKWIQDAKSVETVQFLKQAILAELPA; Engineered insulin binding Y variant) | 97% | 61 °C |  | 
310 nM | 12000 M⁻¹ s⁻¹ | 0.0036 s⁻¹ |  |  |  | Y00361: insulin binding Y variant from Ylib002Naive.I, SEQ ID NO:144 (LAEAKEAAIAELDSKGVGAKFIKMIQSAKLVETVQLLKQAILADLPA; Engineered insulin binding Y variant) | 100% | 52 °C |  | 
 |  |  |  |  |  | Y02688: C4 binding Y variant, Y02330 with I9L, SEQ ID NO:43 (LAEAKEAALAELDSKGVGAELIKKIQHAESVEGVQFWKQEILAYLPA; Engineered C4 binding Y variant) |  |  | 100% | 50 °C
 |  |  |  |  |  | Y02689: C4 binding Y variant, Y02330 with K15Y, SEQ ID NO:44 (LAEAKEAAIAELDSYGVGAELIKKIQHAESVEGVQFWKQEILAYLPA; Engineered C4 binding Y variant) |  |  | 100% | 53 °C
 |  |  |  |  |  | Y02690: C4 binding Y variant, Y02330 with Q26E, SEQ ID NO:45 (LAEAKEAAIAELDSKGVGAELIKKIEHAESVEGVQFWKQEILAYLPA; Engineered C4 binding Y variant) |  |  | 100% | 53 °C
 |  |  |  |  |  | Y02691: C4 binding Y variant, Y00792 with K15Y Q26E, SEQ ID NO:46 (LAEAKEAAIAELDSYGVGADLIKKIEQASSVEGVQFWKQEILAQLPA; Engineered C4 binding Y variant) |  |  | 100% | 58 °C
 |  |  |  |  |  | Y02692: C4 binding Y variant, Y02309 with K15Y Q26E, SEQ ID NO:47 (LAEAKEAAIAELDSYGVGADLIKKIEKAESVEGVQFWKQEILATLPA; Engineered C4 binding Y variant) |  |  | 100% | 57 °C
 |  |  |  |  |  | Y02693: C4 binding Y variant, Y02330 with K15Y Q26E, SEQ ID NO:48 (LAEAKEAAIAELDSYGVGAELIKKIEHAESVEGVQFWKQEILAYLPA; Engineered C4 binding Y variant) |  |  | 100% | 52 °C
 |  |  | 380 nM | 27000 M⁻¹ s⁻¹ | 0.01 s⁻¹ | Y02709: insulin binding Y variant, Y00358 with I9L, SEQ ID NO:149 (LAEAKEAALAELDSKGVGAAKIKWIQDAKSVETVQFLKQAILAELPA; Engineered insulin binding Y variant) |  |  | 100% | 54 °C
 |  |  | 14 nM | 190000 M⁻¹ s⁻¹ | 0.0027 s⁻¹ | Y02710: insulin binding Y variant, Y00358 with K15Y, SEQ ID NO:150 (LAEAKEAAIAELDSYGVGAAKIKWIQDAKSVETVQFLKQAILAELPA; Engineered insulin binding Y variant) |  |  | 100% | 61 °C
 |  |  | 54 nM | 1500 M⁻¹ s⁻¹ | 0.008 s⁻¹ | Y02711: insulin binding Y variant, Y00358 with Q26E, SEQ ID NO:151 (LAEAKEAAIAELDSKGVGAAKIKWIEDAKSVETVQFLKQAILAELPA; Engineered insulin binding Y variant) |  |  | 100% | 62 °C
 |  |  | 190 nM | 110000 M⁻¹ s⁻¹ | 0.014 s⁻¹ | Y02713: insulin binding Y variant, Y00310 with K15Y, SEQ ID NO:153 (LAEAKEAAIAELDSYGVGAYQIKFIQIAHTVEEVQLMKQAILADLPA; Engineered insulin binding Y variant) |  |  | 100% | 51 °C
 |  |  | 540 nM | 290000 M⁻¹ s⁻¹ | 0.16 s⁻¹ | Y02714: insulin binding Y variant, Y00310 with Q26E, SEQ ID NO:154 (LAEAKEAAIAELDSKGVGAYQIKFIEIAHTVEEVQLMKQAILADLPA; Engineered insulin binding Y variant) |  |  | 100% | 53 °C
